Test results taken from patent US20250295796A1, “CELL PENETRATING POLYPEPTIDES (CPPS) AND THEIR USE IN HUMAN THERAPY” (RDP PHARMA AG, priority 2021, published 2025).

Assays:
[1] = tested on: human colon carcinoma with null p53 (HCT116 p53−/−) xenograft; experiment: HCT116 p53-/- xenograft, CROMOC36 versus nuclease impaired CROMOC60; type: in vivo, mouse; conditions: s.c. 4 mg/kg on days 0, 1, 2, 3, 6, 7, 8, 9, 10, 20, 22, 24
Procedure: FIG. 7: HCT116 p53−/− human colon carcinoma xenograft. Treatment on advanced tumors (volume >50 mm^3). Dose: CROMOC36 4 mg/kg; CROMOC60 4 mg/kg. Treatment: s.c. administration on day 0, 1, 2, 3, 6, 7, 8, 9, 10, 20, 22, 24.
A study was conducted to test the antitumor efficacy of CROMOC36 on an advanced human colon carcinoma with null p53 (HCT116 p53−/−) xenograft model and compare it to a vehicle or a nuclease impaired version CROMOC60 treatment group. CROMOC60 is no more catalytically active as a nuclease but is able to be transported to the nucleus of a cell. This study was also designed to proof that the active principle of the tumor growth inhibiting activity of CROMOC is the nuclease activity in vivo. CROMOC36 and CROMOC60 were both administered subcutaneously (s.c.) at 4 mg/kg dose on the days 0, 1, 2, 3, 6, 7, 8, 9, 10, 20, 22, 24. […] This also proofs that CROMOC36 can serve as a valid DNA DSB reagent.

[2] = tested on: HCT116 human colon carcinoma xenograft with null p53 (HCT116 p53−/−); experiment: HCT116 p53-/- xenograft, single agent and combination with cisplatin or vincristine; type: in vivo, female athymic nude mice
Procedure: A study was conducted to evaluate the efficacy and tolerability of CROMOC36 against an HCT116 human colon carcinoma xenograft model with null p53 (HCT116 p53−/−) in female athymic nude mice. CROMOC36 was administered subcutaneously (s.c.) three times at intervals of two weeks (q14dx3) as a single agent or in combination with cisplatin (CDDP) at 4 mg/kg or vincristine (VCR) at 2 mg/kg which were both administered five times at intervals of one week (q7dx5). CROMOC36 was tested at 32 mg/kg or using a decreasing dosage of 32-16-16 mg/kg. CDDP and VCR were also administered as single agents to allow comparison of the efficacy of CROMOC36 with commonly used anticancer drugs. The dose and schedule of CDDP and VCR treatments remained the same when tested as single agents or in combination with CROMOC36. […] Efficacy was also evaluated by measuring the tumor growth delay (TGD) and the number of regression responses.

HUPT3 = experiment: Propidium iodide monolayer assay, HUPT3; type: cell-based, human; conditions: HUPT3, four days
Procedure: Monolayer Assay Propidium Iodid (PI). Cells were harvested from exponential phase cultures, counted and depending on the cell line 3.000 to 20.000 cells were plated in 96-well flat-bottom microtiter plates After a 24 h recovery period to allow cells to resume exponential growth, 10 μl of culture medium (four control wells/plate) or culture medium with the test compound were added by a liquid handling robotic system and treatment continued for four days. Compounds were applied in half-log increments at 10 concentrations in duplicate. Three independent experiments were performed. Cells were then washed with 200 μl PBS to remove dead cells followed by addition of 200 μl of a solution containing 7 μg/ml propidium iodide (PI) and 0.1% (v/v) Triton X-100. After an incubation period of 1-2 h at room temperature, fluorescence (FU) was measured using the Cytofluor 4000 microplate reader (excitation λ=530 nm, emission λ=620 nm) to quantify the amount of attached viable cells. […]
CROMOC36—in vitro activity Human pancreatic carcinoma cell lines. […] Antitumor activity was assessed after four days of CROMOC36 treatment using a propidium iodide based monolayer proliferation assay. […]

B1: CROMOC36: single chain PvuII endonuclease fused at its C-terminus to DDM36, PEGylated final product used in the Examples (protein)
chain: MSHPDLNKLLELWPHIQEYQDLALKHGINDIFQDNGGKLLQVLLITGLTVLPGREGNDAVDNAGQEYELKSINIDLTKGFSTHHHMNPVIIAKYRQVPWIFAIYRGIAIEAIYRLEPKDLEFYYDKWERKWYSDGHKDINNPKIPVKYVMEHGTKIYGSGGSGGSSHPDLNKLLELWPHIQEYQDLALKHGINDIFQDNGGKLLQVLLITGLTVLPGREGNDAVDNAGQEYELKSINIDLTKGFSTHHHMNPVIIAKYRQVPWIFAIYRGIAIEAIYRLEPKDLEFYYDKWERKWYSDGHKDINNPKIPVKYVMEHGTKIYGNSGSGKKKKKGKGSGLGSGKKKDPLGSGLGSGKKKKKGKGSGLGSGKKKDPLGST
modifications: PEGylated; peptide, CROMOC36
- progression of HCT116 p53−/− human colon carcinoma as compared to vehicle control [1]: significantly inhibited
- tumor growth inhibition ([2]; CROMOC36 32 mg/kg s.c. q14dx3, single agent): 82.9%
- partial regression response ([2]; CROMOC36 32-16-16 mg/kg): one
- tumor-free survivor ([2]; CROMOC36 32-16-16 mg/kg): one
- tumor growth inhibition with respect to single-agent CROMOC36 ([2]; CROMOC36 32-16-16 mg/kg in combination with CDDP or VCR): did not change significantly
- persistence of inhibitory effect ([2]; CROMOC36 32-16-16 mg/kg, single agent or in combination with CDDP or VCR, three weeks after the last treatment): persisted until day 50
- tumor growth inhibition ([2]; CROMOC36 decreasing 32-16-16 mg/kg s.c. q14dx3, single agent): 91.6%
- % TGD (tumor growth delay) ([2]; endpoint tumor volume of 1000 mm^3, CROMOC36 as single agent or in combination): > 117%
- time to study endpoint (TTE) ([2]; endpoint tumor volume of 1000 mm^3, control Day 23, CROMOC36 as single agent or in combination): > 50 days
- IC50 (HUPT3): ~10 nM
